Results on two molecules are retold here after PMC7093153 (eLife, 2020).

To fix the notation:
B1: Rad51 (S. pombe), purified (natural protein, UniProt P36601 1-365, looked up)
chain: MADTEVEMQVSAADTNNNENGQAQSNYEYDVNVQDEEDEAAAGPMPLQMLEGNGITASDIKKIHEAGYYTVESIAYTPKRQLLLIKGISEAKADKLLGEASKLVPMGFTTATEYHIRRSELITITTGSKQLDTLLQGGVETGSITELFGEFRTGKSQICHTLAVTCQLPIDMGGGEGKCLYIDTEGTFRPVRLLAVADRYGLNGEEVLDNVAYARAYNADHQLELLQQAANMMSESRFSLLVVDSCTALYRTDFSGRGELSARQMHLARFMRTLQRLADEFGIAVVITNQVVAQVDGISFNPDPKKPIGGNILAHSSTTRLSLRKGRGEQRICKIYDSPCLPESEAIFAINSDGVGDPKEIIAPV
B2: Swi5-Sfr1 complex (wild type, full-length Sfr1) (complex, S. pombe)
chain 1: MEKSQLESRVHLLEQQKEQLESSLQDALAKLKNRDAKQTVQKHIDLLHTYNEIRDIALGMIGKVAEHEKCTSVELFDRFGVNGSE
chain 2: MSQTINSELNENATSQCKEDLKVSLSESDLRDSQGQLGIENPPKCNNSGNHSDNLGFIEQSETVHPENEKALTPDLRDTKIHTSLPITTPFSKKRAREAKNILLKPFKSPLRQTASPQVADTNLKPSLAVTNLNSDETNTSSEPVTSPLRTTPNSIKRQKRLFKSPISNCLNPKSDPEITQLLSRRLKLEKEVRNLQEQLITAETARKVEAKNEDKDLQTLIQKWKNAAQQAAEVLFKPMAERIRLAGGVTQSFRIEEGENKGQIQEVRTEFTMSMFLNQFGVPVHLMSFDEENGDWKS

The series “SEC” concerns the molecule itself. Nature of the series: SEC. (In gel filtration, larger molecules generally elute earlier.)
For series [1], the target named is B2. Nature of the series: pull-down.
Series [2] deals with B1. Nature of the series: cell-based or functional assay.

For the molecule B1, the binding result (in “SEC”; in series [1]) was “binds” in each case.

With B2, in series [2], the “Rad51-dependent ATP turnover, Swi5-Sfr1:Rad51 ratio of 1:20” value stood at 1.85 fold.
